From patent US20220363770A1 (Amgen, published 2022)
Numbering of substitutions follows the chain as printed.

B1: iPS:454851 (bispecific antibody, human IgG1, kappa, lambda, N297G)
light 1: QSVLTQPPSVSAAPGQKVTISCSGSRSNIGIKAVSWYQQLPGTAPKLLIYDNNKRPSGIPDRFSGSKSGTSATLGITGLQTGDEADYYCGTWDSRLSAVVFGGGTKLTVLGQPKAAPSVTLFPPSSEELQANKATLVCLISDFYPGAVTVAWKADSSPVKAGVETTTPSKQSNNKYAAKSYLSLTPEQWKSHRSYSCQVTHEGSTVEKTVAPTECS
heavy 1: QVQLVESGGGVVQPGRSLRLSCAASGFTFSSFGMHWVRQAPGKGLEWVAVISFDGSIKYSVDSVKGRFTISRDNSKNTLFLQMNSLRAEDTAVYYCARDRLNYYESSGYYHYKYYGMAVWGQGTTVTVSSASTKGPSVFPLAPSSKSTSGGTAALGCLVKDYFPEPVTVSWNSGALTSGVHTFPAVLQSSGLYSLESVVTVPSSSLGTQTYICNVNHKPSNTKVDKKVEPKSCDKTHTCPPCPAPELLGGPSVFLFPPKPKDTLMISRTPEVTCVVVDVSHEDPEVKFNWYVDGVEVHNAKTKPCEEQYGSTYRCVSVLTVLHQDWLNGKEYKCKVSNKALPAPIEKTISKAKGQPREPQVYTLPPSRKKMTKNQVSLTCLVKGFYPSDIAVEWESNGQPENNYKTTPPVLKSDGSFFLYSKLTVDKSRWQQGNVFSCSVMHEALHNHYTQKSLSLSPGK
light 2: EIVLTQSPATLSLSPGERATLSCRASKSVGWSLHWYQQKPGQAPRLLIKYASQSLSGIPARFSGSGSGTDFTLTISSLEPEDFAVYYCHQSSRLPFTFGPGTKVDIKRTVAAPSVFIFPPSDEQLKSGTASVVCLLNNFYPREAKVQWKVDNALQSGNSQESVTEQDSKDSTYSLESTLTLSKADYEKHKVYACEVTHQGLSSPVTKSFNRGEC
heavy 2: not shown
B2: iPS:454853 (bispecific antibody, human IgG1, kappa, lambda, N297G)
light 1: B1 light 1
heavy 1: B1 heavy 1
light 2: B1 light 2
heavy 2: not shown
B3: iPS:454855 (bispecific antibody, human IgG1, kappa, lambda, N297G)
light 1: B1 light 1
heavy 1: B1 heavy 1
light 2: B1 light 2 with W31Y
heavy 2: not shown
B4: iPS:454857 (bispecific antibody, human IgG1, kappa, lambda, N297G)
light 1: B1 light 1 with R26S, I31N, K32N, A33Y, A72T
heavy 1: B1 heavy 1 with E105R, S107F, H111G, K113H
light 2: B1 light 2 with W31Q
heavy 2: not shown
B5: iPS:454859 (bispecific antibody, human IgG1, kappa, lambda, N297G)
light 1: B1 light 1 with R26S, I31N, K32N, A33Y, A72T
heavy 1: B1 heavy 1 with E105R, S107F, H111G, K113H
light 2: B1 light 2 with S28A, G30W, W31H, S32N, R93M
heavy 2: not shown
B6: iPS:454861 (bispecific antibody, human IgG1, kappa, lambda, N297G)
light 1: B1 light 1 with R26S, I31N, K32N, A33Y, A72T
heavy 1: B1 heavy 1 with E105R, S107F, H111G, K113H
light 2: B1 light 2 with K27R, W31L, S32A, R93F
heavy 2: not shown
B7: iPS:454863 (bispecific antibody, human IgG1, kappa, lambda, N297G)
light 1: B1 light 1 with R26S, I31N, K32N, A33Y, A72T
heavy 1: B1 heavy 1 with E105R, S107F, H111G, K113H
light 2: B1 light 2 with W31Q
heavy 2: not shown
B8: iPS:454865 (bispecific antibody, human IgG1, kappa, lambda, N297G)
light 1: B1 light 1 with R26S, I31N, K32N, A33Y, A72T
heavy 1: B1 heavy 1 with E105R, S107F, H111G, K113H
light 2: B1 light 2 with W31Q
heavy 2: not shown
B9: iPS:454867 (bispecific antibody, human IgG1, kappa, lambda, N297G)
light 1: B1 light 1 with R26S, I31N, K32N, A33Y, A72T
heavy 1: B1 heavy 1 with E105R, S107F, H111G, K113H
light 2: B1 light 2
heavy 2: not shown
B10: iPS:454869 (bispecific antibody, human IgG1, kappa, lambda, N297G)
light 1: B1 light 1 with R26S, I31N, K32N, A33Y, A72T
heavy 1: B1 heavy 1 with E105R, S107F, H111G, K113H
light 2: B1 light 2 with W31Q
heavy 2: not shown
B11: iPS:454871 (bispecific antibody, human IgG1, kappa, lambda, N297G)
light 1: B1 light 1 with R26S, I31N, K32N, A33Y, A72T
heavy 1: B1 heavy 1 with E105R, S107F, H111G, K113H
light 2: B1 light 2 with W31Q
heavy 2: not shown
B12: iPS:454873 (bispecific antibody, human IgG1, kappa, lambda, N297G)
light 1: B1 light 1 with R26S, I31N, K32N, A33Y, A72T
heavy 1: B1 heavy 1 with E105R, S107F, H111G, K113H
light 2: B1 light 2 with S28A, W31F, R93F
heavy 2: not shown
B13: iPS:454875 (bispecific antibody, human IgG1, kappa, lambda, N297G)
light 1: B1 light 1 with R26S, I31N, K32N, A33Y, A72T
heavy 1: B1 heavy 1 with E105R, S107F, H111G, K113H
light 2: EIVLTQSPATLSLSPGERATLSCRASRAVSNLHWYQQKPGQAPRLLIKYASQSLSGIPARFSGSGSGTDFTLTISSLEPEDFAVYYCHQSSYLPFTFGPGTKVDIKRTVAAPSVFIFPPSDEQLKSGTASVVCLLNNFYPREAKVQWKVDNALQSGNSQESVTEQDSKDSTYSLESTLTLSKADYEKHKVYACEVTHQGLSSPVTKSFNRGEC
heavy 2: not shown
B14: iPS:454877 (bispecific antibody, human IgG1, kappa, lambda, N297G)
light 1: B1 light 1 with R26S, I31N, K32N, A33Y, A72T
heavy 1: B1 heavy 1 with E105R, S107F, H111G, K113H
light 2: B1 light 2 with W31R
heavy 2: not shown
B15: iPS:454879 (bispecific antibody, human IgG1, kappa, lambda, N297G)
light 1: B1 light 1 with R26S, I31N, K32N, A33Y, A72T
heavy 1: B1 heavy 1 with E105R, S107F, H111G, K113H
light 2: B1 light 2 with W31R
heavy 2: not shown
B16: iPS:454881 (bispecific antibody, human IgG1, kappa, lambda, N297G)
light 1: B1 light 1 with R26S, I31N, K32N, A33Y, A72T
heavy 1: B1 heavy 1 with E105R, S107F, H111G, K113H
light 2: B1 light 2 with W31R
heavy 2: not shown
B17: iPS:454883 (bispecific antibody, human IgG1, kappa, lambda, N297G)
light 1: B1 light 1 with R26S, I31N, K32N, A33Y, A72T
heavy 1: B1 heavy 1 with E105R, S107F, H111G, K113H
light 2: B1 light 2 with W31R
heavy 2: not shown
B18: iPS:454885 (bispecific antibody, human IgG1, kappa, lambda, N297G)
light 1: B1 light 1 with R26S, I31N, K32N, A33Y, A72T
heavy 1: B1 heavy 1 with E105R, S107F, H111G, K113H
light 2: B1 light 2 with W31R
heavy 2: not shown
B19: iPS:454887 (bispecific antibody, human IgG1, kappa, lambda, N297G)
light 1: B1 light 1 with R26S, I31N, K32N, A33Y, A72T
heavy 1: B1 heavy 1 with E105R, S107F, H111G, K113H
light 2: B1 light 2 with W31R
heavy 2: not shown
B20: iPS:454889 (bispecific antibody, human IgG1, kappa, lambda, N297G)
light 1: B1 light 1 with R26S, I31N, K32N, A33Y, A72T
heavy 1: B1 heavy 1 with E105R, S107F, H111G, K113H
light 2: B1 light 2 with W31R
heavy 2: not shown
B21: iPS:454891 (bispecific antibody, human IgG1, kappa, lambda, N297G)
light 1: B1 light 1 with R26S, I31N, K32N, A33Y, A72T
heavy 1: B1 heavy 1 with E105R, S107F, H111G, K113H
light 2: B1 light 2 with K27Q, W31R
heavy 2: not shown
B22: iPS:454893 (bispecific antibody, human IgG1, kappa, lambda, N297G)
light 1: B1 light 1 with R26S, I31N, K32N, A33Y, A72T
heavy 1: B1 heavy 1 with E105R, S107F, H111G, K113H
light 2: B1 light 2 with K27Q, W31R
heavy 2: not shown

molecular target: human CGRP receptor (human, UniProt Q16602 23-461; O60894 27-148); assay: cell-based or functional assay
Sequence (Q16602 23-461 limits assumed, chain 1 of 2): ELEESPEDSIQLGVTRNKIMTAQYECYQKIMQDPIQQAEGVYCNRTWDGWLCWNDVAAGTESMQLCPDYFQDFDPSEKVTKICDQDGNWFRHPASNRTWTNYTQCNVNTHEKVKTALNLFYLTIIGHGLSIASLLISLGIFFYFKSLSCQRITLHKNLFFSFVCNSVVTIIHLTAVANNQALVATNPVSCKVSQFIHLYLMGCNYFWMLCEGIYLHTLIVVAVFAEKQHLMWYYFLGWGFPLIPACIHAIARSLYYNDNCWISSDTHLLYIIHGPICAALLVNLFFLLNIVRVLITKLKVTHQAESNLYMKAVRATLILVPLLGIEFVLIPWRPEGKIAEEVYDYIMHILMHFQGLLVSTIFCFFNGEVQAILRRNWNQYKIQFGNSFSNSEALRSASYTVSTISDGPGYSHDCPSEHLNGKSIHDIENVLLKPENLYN
Sequence (O60894 27-148 limits assumed, chain 2 of 2): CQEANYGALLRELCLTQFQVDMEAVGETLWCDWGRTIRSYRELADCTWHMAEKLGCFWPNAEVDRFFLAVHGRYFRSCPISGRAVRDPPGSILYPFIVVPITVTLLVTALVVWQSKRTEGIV

Binder | Fold-improvement over 4E4 Ab [fold] | IC50 [nM]
B1 | 1.8 | 0.37
B2 | 1.4 | 0.47
B3 | 1.4 | 0.46
B4 | 0.5 | 1.36
B5 | 0.4 | 1.5
B6 | 0.4 | 1.54
B7 | 0.4 | 1.5
B8 | 0.4 | 1.59
B9 | 0.4 | 1.55
B10 | 0.4 | 1.65
B11 | 0.2 | 2.3
B12 | 0.2 | 2.13
B13 | 0.3 | 1.7
B14 | 0.3 | 1.49
B15 | 0.3 | 1.37
B16 | 0.5 | 0.93
B17 | 0.5 | 1.03
B18 | 0.5 | 1.16
B19 | 0.3 | 1.86
B20 | 0.5 | 1.1
B21 | 0.6 | 0.9
B22 | 0.4 | 1.35

molecular target: T1, human PAC1 receptor (human, UniProt P41586 24-468); assay: cell-based or functional assay
T1 sequence: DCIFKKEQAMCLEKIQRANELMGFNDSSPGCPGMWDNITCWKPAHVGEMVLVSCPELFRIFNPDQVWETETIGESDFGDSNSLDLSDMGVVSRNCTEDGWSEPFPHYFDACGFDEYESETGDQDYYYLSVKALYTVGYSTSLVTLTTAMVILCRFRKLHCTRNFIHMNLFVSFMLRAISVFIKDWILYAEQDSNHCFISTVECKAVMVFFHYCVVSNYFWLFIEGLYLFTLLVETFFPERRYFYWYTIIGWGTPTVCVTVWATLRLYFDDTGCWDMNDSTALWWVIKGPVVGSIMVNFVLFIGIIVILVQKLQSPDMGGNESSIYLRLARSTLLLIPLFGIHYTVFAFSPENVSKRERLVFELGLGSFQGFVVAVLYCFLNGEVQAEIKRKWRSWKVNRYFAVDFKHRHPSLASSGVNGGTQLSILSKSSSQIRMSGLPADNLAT

Binder | Fold-improvement over 29G4v22 Ab [fold] | IC50 [nM]
B1 | 7.1 | 0.76
B2 | 5.8 | 0.93
B3 | 6.6 | 0.81
B4 | 11.2 | 0.57
B5 | 3.3 | 1.91
B6 | 4.8 | 1.34
B7 | 4.5 | 1.4
B8 | 3.9 | 1.63
B9 | 6.5 | 0.98
B10 | 5.8 | 1.1
B11 | 3.3 | 1.74
B12 | 4.4 | 1.32
B13 | 1.9 | 3
B14 | 7.2 | 0.8
B15 | 6.7 | 0.86
B16 | 10.9 | 0.53
B17 | 9 | 0.64
B18 | 10.5 | 0.61
B19 | 9.3 | 0.69
B20 | 4.9 | 1.31
B21 | 9.5 | 0.68
B22 | 7.4 | 0.87
